The source of these data is PMC2935283.

Experiment [1] deals with Escherichia coli enolase (E. coli) (UniProt P0A6P9). As to the kind of experiment: native MS; enolase mixed with the microdomain in a 1:1.5 molar ratio, room temperature, 20 min; nanoflow ESI, tandem nondissociating QTOF-MS/MS.
Experiment [2] has the same target. Kind of experiment: crystal structure; enolase and microdomain mixed in a 1:1.5 molar ratio on ice for 20 min; sitting drop, 0.1 M HEPES pH 7.0, 1.6 M ammonium sulfate, 293 K; 1.9 A.

Chain of Escherichia coli enolase (E. coli) (P0A6P9 whole entry): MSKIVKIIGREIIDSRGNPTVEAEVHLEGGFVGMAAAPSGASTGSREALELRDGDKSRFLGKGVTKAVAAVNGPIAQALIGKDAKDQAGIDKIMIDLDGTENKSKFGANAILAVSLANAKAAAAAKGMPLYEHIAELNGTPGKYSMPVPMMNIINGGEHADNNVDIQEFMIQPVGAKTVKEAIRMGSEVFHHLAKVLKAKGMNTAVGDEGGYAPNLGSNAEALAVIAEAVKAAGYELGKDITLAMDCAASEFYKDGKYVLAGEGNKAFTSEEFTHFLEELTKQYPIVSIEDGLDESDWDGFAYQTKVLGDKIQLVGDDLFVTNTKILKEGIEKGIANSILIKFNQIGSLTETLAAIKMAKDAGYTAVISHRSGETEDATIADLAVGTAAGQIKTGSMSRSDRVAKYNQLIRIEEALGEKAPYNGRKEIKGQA

As to “RNase E recognition microdomain (residues 823-850) (peptide)”, the stoichiometry N (RNase E microdomain per enolase dimer) in experiment [1] and in experiment [2] was 1 each time.
